Measurements published in the supplement of paper PMC9732359.
± gives the uncertainty stated by the source.

Experiment: protein stability index of a GFP-peptide fusion (yeast GPS) (PSI 1-4); higher = more stable; sorted into four equal gates, so the index is relative within each strain
Summary of the method: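 Tiled 17-residue yeast protein peptides were fused downstream of GFP in a plasmid that also expresses Cherry, and the pooled library was carried in yeast. Mid-log cultures in leucine-free medium were sorted into four equal gates by GFP/Cherry fluorescence ratio, and plasmids from each gate were PCR-amplified and Illumina-sequenced, with reads assigned to strains by barcodes. The protein stability index for each peptide was each gate's read frequency times its gate number, summed.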

Sequence | protein stability index (doa10∆) | protein stability index (pdr5∆) | protein stability index (san1∆) | protein stability index (ubr1∆)
SQTTTNDSKEESTTEAT [YLR335W/NUP2] | 3.02 ± 0.19 | 2.83 ± 0.21 | 2.97 ± 0.21 | 3.27 ± 0.079
QKLMQLVVLTDVVERLH [RGR1] | 2.29 ± 0.072 | 2.38 ± 0.049 | 2.23 ± 0.091 | 2.3 ± 0.035
NEIESRQLTSLGSKKEL [SNU114] | 3.17 ± 0.075 | 3.28 ± 0.078 | 3.31 ± 0.092 | 3.37 ± 0.058
AVHSIIALSRRFLLNGR [YDL116W/NUP84] | 2.11 ± 0.086 | 1.56 ± 0.069 | 2.06 ± 0.14 | 1.99 ± 0.085
IVGLATLIVNTDVEKSD [SRP21] |  |  |  | 3.69 ± 0.26
HRQEIFKDSPMDLFMST [GAL11] | 2.85 ± 0.089 | 2.98 ± 0.059 | 3.23 ± 0.073 | 2.87 ± 0.076
DATYDSALELVGQLNKV [RPN6] | 3.11 ± 0.16 | 3.1 ± 0.11 | 3.27 ± 0.21 | 2.72 ± 0.28
KPAEKNNNETSKPAFSF [YJL041W/NSP1] | 1.65 ± 0.15 | 1.98 ± 0.06 | 2.24 ± 0.16 | 1.64 ± 0.11
HISFNFSMLQMAFEASA [BRR2] | 1.42 ± 0.075 | 1.45 ± 0.066 | 1.41 ± 0.23 | 1.24 ± 0.06
RYDYSDEVGRRSMLTVV [YCG1] | 2.02 ± 0.067 | 1.73 ± 0.062 | 2.91 ± 0.094 | 1.97 ± 0.05
QRKNGVTNSPLFQTIEK [ECM29] | 3.29 ± 0.16 | 3.1 ± 0.14 | 2.19 ± 0.28 | 3.11 ± 0.086
IGSGAMSPLECRNILGV [RPP1] | 1.93 ± 0.03 | 2.43 ± 0.046 | 2.19 ± 0.064 | 2.38 ± 0.034
LQQKHELDTASRILKAQ [YGR119C/NUP57] | 2.73 ± 0.045 | 2.83 ± 0.046 | 2.53 ± 0.052 | 3.03 ± 0.034
QVVTDYNILGNLGIPKI [SSN2] | 2.51 ± 0.069 | 2.96 ± 0.072 | 2.37 ± 0.1 | 2.27 ± 0.06
VDESLLSTLPAGKSLVS [QCR2] | 2.65 ± 0.15 | 2.81 ± 0.22 | 1.85 ± 0.26 | 2.41 ± 0.13
YSSRVDSVTTETGKLLS [BRN1] | 2.38 ± 0.13 | 2.46 ± 0.14 | 2.34 ± 0.21 | 2.11 ± 0.18
FITTLLKSLYSFFNISP [SIN4] | 2.26 ± 0.042 | 1.5 ± 0.037 | 1.46 ± 0.057 | 1.53 ± 0.034
TPLFHALAEGHGDAAVL [NAS6] |  | 3.1 ± 0.1 | 3.07 ± 0.091 | 2.61 ± 0.12
ISNGNLATGPNLTSEIE [YOR098C/NUP1] | 3.4 ± 0.096 | 3.39 ± 0.11 | 3.17 ± 0.06 | 3.41 ± 0.091
SQEMVPRYFSEAINGFK [SIR3] | 2.99 ± 0.079 | 3.01 ± 0.088 | 3.14 ± 0.058 | 2.94 ± 0.054
LEHIDSKSEFAHRIMLT [FAS2] | 2.17 ± 0.063 | 2.19 ± 0.069 | 2.72 ± 0.075 | 2.25 ± 0.063
RLRALQLYFQKNGAQDL [RRI2] | 1.7 ± 0.06 | 1.95 ± 0.076 | 1.95 ± 0.087 | 2.44 ± 0.044
ELVIRLEKDAADCQAEL [YIL149C/MLP2] | 2.93 ± 0.25 | 3.05 ± 0.18 | 3.18 ± 0.22 | 3.07 ± 0.22
LPLQAQQQLYGGNNNNN [SWI1] | 3.05 ± 0.064 | 2.92 ± 0.07 | 2.68 ± 0.068 | 2.56 ± 0.045
YITNADDSTKFQLVNDV [SIR3] | 3.01 ± 0.11 | 3.18 ± 0.1 | 2.94 ± 0.092 | 3.24 ± 0.071
NPLKNKQVLLRLNPYAK [RPL4A] | 1.34 ± 0.17 | 1.21 ± 0.11 | 1.15 ± 0.15 | 1.13 ± 0.18
TLISRISSLFTITTILI [YML103C/NUP188] | 1.63 ± 0.068 | 1.8 ± 0.066 | 1.37 ± 0.088 | 2.02 ± 0.11
